In patent US5693759:

How the values were obtained:
[1] = target: T1, TRC-1 (p21SNF1/JunB heteromultimer) (Homo sapiens) (UniProt Q9NR55+P17275); assay: competition; conditions: vs 12.5-fold for s2
T1 sequence 1: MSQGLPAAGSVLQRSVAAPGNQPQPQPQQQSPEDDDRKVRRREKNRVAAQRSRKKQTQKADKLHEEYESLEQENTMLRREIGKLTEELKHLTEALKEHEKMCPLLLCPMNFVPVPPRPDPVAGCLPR
T1 sequence 2: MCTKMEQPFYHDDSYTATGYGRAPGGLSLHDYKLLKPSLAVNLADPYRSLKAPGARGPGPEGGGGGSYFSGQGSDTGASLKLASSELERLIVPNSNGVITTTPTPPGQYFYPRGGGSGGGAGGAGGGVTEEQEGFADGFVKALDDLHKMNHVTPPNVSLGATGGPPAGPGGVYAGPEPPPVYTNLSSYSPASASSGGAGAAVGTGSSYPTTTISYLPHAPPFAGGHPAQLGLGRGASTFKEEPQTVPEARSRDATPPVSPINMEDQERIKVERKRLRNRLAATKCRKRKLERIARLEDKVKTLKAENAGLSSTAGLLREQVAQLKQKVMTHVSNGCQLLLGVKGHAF

[2] = target: T1, TRC-1 (p21SNF1/JunB heteromultimer) (Homo sapiens); assay: EMSA; conditions: self-competition; abolished at 100-fold
[3] = target: Tax-response complex-1 (TRC-1), purified from SLB-I nuclear extract (human) (UniProt P17275)

Substance: HTLV-1 LTR 21-bp repeat site1 (s1)
- binding signal (fold excess for ~55% competition) [1]: 100

Substance: HTLV-1 LTR 21-bp repeat site2 (s2)
- binding signal (% competition at 12.5-fold excess) [2]: 55

Substance: HTLV-1 LTR 21-bp repeat site3 (s3)
- binding signal (fold excess for ~55% competition) [1]: 50

Substance: HTLV-1 Tax protein, expressed in bacteria as a His6 fusion at its carboxy terminus (from UniProt P03409)
- binding of purified TRC-1 to site2 probe in EMSA, phosphorimage analysis [3]: 2.5 to 6.5 fold
